The values below come from US20240279344A1 (CDR LIFE, published 2024).

To fix the notation:
B1: M0849 scFv (scFv)
scFv: QEQLEESGGGLVTPGGTLTLTCTVSGFSLSNYAMGWVRQAPGKGLEWIGTINDGGTAFYAKWLKGRFTISRTSTTVDLKITSPTTEDTATYFCARAYGSNGDVYWGYFNLWGQGTLVTISSGGGGSGGGGSGGGGSGGGGASELVMTQTPSSVSEPVGGTVTIKCQASQSIGSNLAWYQQRPGQPPKLLIYSASTLASGVSSRFKGSGSGTESTLTISGVQAADAATYYCQQGYSSSNVDNVFGGGTELEIL
notes: Rabbit scFv identified by phage display
B2: M0848 scFv (scFv)
scFv: QEQLVESGGGLVTPGTPLTLTCTVSGFSLSSYAMGWVRQAPGKGLEWIGTINDGGTAFYASWVKGRFTISRTSTTVDLRVTSPTTEDTATYFCARAYGSNGDVYWGYFNLWGQGTLVTVSSGGGGSGGGGSGGGGSGGGGASELDLTQTPASVEVAVGGTVTIKCQASQSIGSYLSWYQQKPGQRPKLLIFRASTLASGVSSRFKGSGSGTQFTLTISGVECADAATYYCQQGYSSTNLDNVFGGGTEVVVK
notes: as for B1
B3: M0859 scFv (scFv)
scFv: QSVKESGGRLVTPGTPLTLTCTVSGFSLSNYAMSWVRQAPGKGLEYIGIVSSGGTTYYASWAKGRFTISKTSTTVDLKITSPTTEDTATYFCAKDLYYGPTTYSAFNLWGQGTLVTISSGGGGSGGGGSGGGGSGGGGASELVLTQPQSVSGSLGQTVSISCKRARDNIEDYYVHWYQQHPGKTPTIVIHKDDQRPSGVPDRFSGSIDSTSNSASLTITGLLAEDEADYFCQSFDNDASPVFGGGTQLTVTG
notes: as for B1
B4: M0860 scFv (scFv)
scFv: QSVKESGGRLVTPGTPLTLTCTVSGFSLSNYAMSWVRQAPGKGLEYIGIVSSGGTTYYASWAKGRFTISKTSTTVDLKITSPTTEDTATYFCAKDLYYGPTTYSAFNLWGQGTLVTISSGGGGSGGGGSGGGGSGGGGASELVLTQPQSVSGSLGQTVSISCKRARDNIEDYYVHWYQQYPGKTPTIVIYKDDQRPSGVPDRFSGSIDSTSNSASLTITGLLAEDEADYFCQSFDNNANVVFGGGTQLTVTG
notes: as for B1
B5: M0858 scFv (scFv)
scFv: QSVEESGGRLVTPGTPLTLTCTVSGFSLSNYAMSWVRQAPGKGLEYIGIVSSGGTTYYASWAKGRFTISKTSTTVDLKITSPTTEDTATYFCAKDLYYGPTTYSAFNLWGQGTLVTVSSGGGGSGGGGSGGGGSGGGGASELVLTQPQSVSGSLGQTVSISCKRARNNIEDYYVHWYQQHPGRSPTIVIHKDDQRPSGVPDRFSGSIDSTSNSASLTITGLLAEDEADYFCQSFDNNANPVFGGGTQLTVTG
notes: as for B1
B6: M0852 scFv (scFv)
scFv: QQQLEESGGGLVTPGTPLTLTCTVSGFSLSNYAMGWVRQAPGKGLEWIGTINDGGTAFYANWLKGRFTISRTSTTVDLKITSPTTEDTATYFCARAYGSNGDVYWGYFNLWGQGTLVTVSSGGGGSGGGGSGGGGSGGGGASELVMTQTASPVSAAVGGTVTINCQASQSISSRSLSWYQQKPGQPPKLLIYEASKLASGVPSRFSGSGSGTQFTLTISGVQADDAATYYCQQGYSSSNVDNVFGGGTEVVVK
notes: as for B1
B7: M0854 scFv (scFv)
scFv: QSVKESWGRLVTPGGSLTLTCTVSGIDLNNYAMGWVRQAPGKGLEWIGTINNDGATYYPSWARGRFTISKTSTTVDLKITSPTTEDTATYFCARTYGSNGDVYWGYFNLWGQGTLVTVSSGGGGSGGGGSGGGGSGGGGASALELTQTPASVEVAVGGTVTINCQASQSIGGALNWYQQKSGQPPKLLIYLASTLASGVSSRFKGSGSGTQFTLTISGVEAADAATYYCQQGYSASNIDNAFGGGTEVVVK
notes: as for B1
B8: M0857 scFv (scFv)
scFv: QQQLVESGGRLVTPGTPLTLTCTASGIDLNSNAMSWVRQGPGKGLEWIGDIWSGGYTDYASWAKGRFTISKTSTTVDLKMTSLTAADTATYFCARDRLAGDGVVDYDLWGQGTLVTISSGGGGSGGGGSGGGGSGGGGASELDMTQTPASVEVAVGGTVTIKCQASQNIYSNLAWYQQKPGQRPKLLIYGASTLASGVPSRFKGSGSGTEYTLTINGVQAADAATYYCQQGFSSSNVDNVFGGGTEVVVK
notes: as for B1
B9: M0850 scFv (scFv)
scFv: QEQLEESGGGLVTPGTPLTLTCTASGFSLSSYAMIWVRQAPGKGLEWIGTINDGGTAFYANWVKGRFTISRTSTTVDLKMTSPTTEDTATYFCARAYGSNGDVYWGYVNLWGQGTLVTVSSGGGGSGGGGSGGGGSGGGGASELVMTQTPASVSEPVGGTVTIKCQASQSIGSNLAWYQQKPGQPPKLLIYAAANLASGVSSRFKGSRSGTEYTLTISGVQAADAATYYCQQGYSSSNVANVFGGGTELEIL
notes: as for B1
B10: M0855 scFv (scFv)
scFv: QQQLEESGGGLVTPGTPLTLTCTVSGIDLSSYAMGWVRQAPGKGLEWIGTINDGGSAFYASWVKGRFTISRTSTTVDLKITSPTAEDTATYFCAKTYGTNGDVYWGYFNLWGQGTLVTISSGGGGSGGGGSGGGGSGGGGASELVMTQTPASVSEPVGGTVTIKCQASQSIGSNLAWYQQKPGQPPKLLIYYESILASGVPSRFSGSGSGTEYTLTISGAQADDAATYYCQQGYSSSNIDNAFGGGTEVVVK
notes: as for B1
B11: M0856 scFv (scFv)
scFv: QQQLEESGGGLVTPGTPLTLTCTVSGIDLSSYAMGWVRQAPGKGLEWIGTINDGGSAFYASWVKGRFTISRTSTTVDLKITSPTAEDTATYFCAKTYGTNGDVYWGYFNLWGQGTLVTISSGGGGSGGGGSGGGGSGGGGASELVMTQTPASVSEPVGGTVTIKCQASQSIGSNLAWYQQKPGQPPKLLIYYESILASGVPSRFSGSGSGTEYTLTISGAQADDAATYYCQQGYSSSNILNAFGGGTEVVVK
notes: as for B1
B12: M0853 scFv (scFv)
scFv: QQQLVESGGGLVTPGTPLTLTCTVSGFSLSNYAMGWVRQAPGKGLEWIGTINDGGTAFYANWLKGRFTISRTSTTVDLKITSPTTEDTATYFCARAYGSNGDVYWGYFNLWGQGTLVTVSSGGGGSGGGGSGGGGSGGGGASELVMTQTASPVSAAVGGTVTINCQASQSISSRSLSWYQQKPGQPPKLLIYEASKLASGVPSRFSGSGSGTQFTLTISGVQADDAATYYCQQGYSSSNVDNFGGGTEVVVK
notes: as for B1
B13: M0851 scFv (scFv)
scFv: QEQLEESGGGLVTPGTPLTLTCTASGFSLSSYAMIWVRQAPGKGLEWIGTINDGGTAFYASWVKGRFTISRTSTTVDLKITSPTTEDTATYFCARAYGSNGDVYWGYVNLWGQGTLVTISSGGGGSGGGGSGGGGSGGGGASELVMTQTPSSVSAAVGGTVTINCQASQNIGSVFAWYQQKPGQPPKLLIYKASSLASGVPSRFKGSGSGTQFTLTISGVEAADAATYYCQQGASSSNVDNIFGGGTEVVVK
notes: as for B1
B14: M0861 scFv (scFv)
scFv: QSVKESGGRLVTPGTPLTLTCTVSGFSLSNYAMSWVRQAPGKGLEYIGIVSSGGTTYYASWAKGRFTISKTSTTVDLKITSPTTEDTATYFCAKDLYYGPTTYSAFNLWGQGTLVTISSGGGGSGGGGSGGGGSGGGGASELVLTQPASVQVNLGQTVSLTCTADTLSRSYASWYQLKPGQAPVLLIYRDTSRPSGVPDRFSGSSSGNTATLTISGAQAGDEGDYVCATSDGSGSNFQLFGGGTQLTVTG
notes: as for B1
B15: M1300 (bispecific antibody, V domains shown)
VH: EVQLLESGGGSVQPGGSLRLSCTVSGFSLSNYAMSWVRQAPGKGLEWIGIVSSGGTTYYASWAKGRFTISKDTSKNTVYLQMNSLRAEDTASYYCAKDLYYGPTTYSAANLWGQGTSVTVSS
VL: SYELTQPPSVSVSPGQTASITCTADTLSRSYASWYQQKPGQSPVLVIYRDTSRPSGIPERFSGSNSGNTATLTISGTQAMDEADYYCATRLFSGSNFQLFGGGTKLTVL
notes: Variant of humanized M0763; tested in SPR as anti-CD3 Fab x anti-MAGE-A4 scFv bispecific
B16: M1310 (bispecific antibody, V domains shown)
VH: EVQLLESGGGSVQPGGSLRLSCTVSGFSLSNYAMSWVRQAPGKGLEWIGIVSSGGTTYYASWAKGRFTISKDTSKNTVYLQMNSLRAEDTASYYCAKDLYYGPNTDYSAANLWGQGTSVTVSS
VL: SYELTQPPSVSVSPGQTASITCTADTLSRSYASWYQQKPGQSPVLVIYRDTSRPSGIPERFSGSNSGNTATLTISGTQAMDEADYYCATRPSSGSNFQAFGGGTKLTVL
notes: as for B15
B17: M1302 (bispecific antibody, V domains shown)
VH: EVQLLESGGGSVQPGGSLRLSCTVSGFSLSNYAMSWVRQAPGKGLEWIGIVSSGGTTYYASWAKGRFTISKDTSKNTVYLQMNSLRAEDTASYYCAKDLYYGPNTDYSAANLWGQGTSVTVSS
VL: SYELTQPPSVSVSPGQTASITCTADTLSRSYASWYQQKPGQSPVLVIYRDTSRPSGIPERFSGSNSGNTATLTISGTQAMDEADYYCATRPSSGSNFQLFGGGTKLTVL
notes: as for B15
B18: M1301 (bispecific antibody, V domains shown)
VH: EVQLLESGGGSVQPGGSLRLSCTVSGFSLSNYAMSWVRQAPGKGLEWIGIVSSGGTTYYASWAKGRFTISKDTSKNTVYLQMNSLRAEDTASYYCAKDLYYGPTTYSAANLWGQGTSVTVSS
VL: SYELTQPPSVSVSPGQTASITCTADTLSRSYASWYQQKPGQSPVLVIYRDTSRPSGIPERFSGSNSGNTATLTISGTQAMDEADYYCATRDFSGSNFQLFGGGTKLTVL
notes: as for B15
B19: M1309 (bispecific antibody, V domains shown)
VH: EVQLLESGGGSVQPGGSLRLSCTVSGFSLSNYAMSWVRQAPGKGLEWIGIVSSGGTTYYASWAKGRFTISKDTSKNTVYLQMNSLRAEDTASYYCAKDLYYGPSTYFVANLWGQGTSVTVSS
VL: SYELTQPPSVSVSPGQTASITCTADTLSRSYASWYQQKPGQSPVLVIYRDTSRPSGIPERFSGSNSGNTATLTISGTQAMDEADYYCATRPSSGSNFQAFGGGTKLTVL
notes: as for B15

The target in the first test is T1, HLA-A2/MAGE-A4 complex, recombinant (HLA-A*02:01 extracellular domain, human b2m, MAGE-A4 peptide 230-239 …) (human, UniProt P04439 25-299 at identity 0.94); P61769 21-119).
T1 construct: also called MAGE-A4 pMHC; MAGE-A4/HLA-A2 complex
The experiment in a line: phage display biopanning and screening.
B1: the binding result was “binds”.
For B2, the binding result is on record as “binds”.
Turning to B3, the binding result is reported as “binds”.
On to B4, for which the binding result is on record as “binds”.
Still for that read-out and setting: the result for B5 reads “binds”; that for B6, “binds”; that for B7, “binds”.
The same measure, in the same setting: the result for B8 reads “binds”.
With B9, the binding result is reported as “binds”.
Still for that read-out and setting: in the case of B10 it was “binds”; in that of B11, “binds”.
As to B12, the binding result is on record as “binds”.
On the same count and under the same terms, in the case of B13 it was “binds”; in that of B14, “binds”.

The target of a further test is T1, HLA-A2/MAGE-A4 complex, recombinant …. Briefly: SPR, monovalent. (In SPR one partner is held on a chip, and binding of the other changes the refractive index at the surface.)
In the case of B15, the Kd was 0.12 nM.
The same measure, in the same setting: the result for B16 reads 0.35 nM.
Same read-out and setting: the result for B17 reads 0.6 nM; that for B18, 0.12 nM.
B19: the Kd was found to be 0.09 nM.

By Kd is commonly meant the constant that tells how readily two partners part at equilibrium.
